Results: patent US10053716B2, “4-amino cinnamic acid production method using enzyme” (JAPAN SCIENCE AND TECHNOLOGY AGENCY, priority 2014, dated 2018)

Legend:
[1] = Resting cell reaction, production of cinnamic acid; type: cell-based, Escherichia coli; details: 4-aminophenylalanine alone as substrate
Method: (§1) Escherichia coli was cultured at 37° C. using LB medium containing 100 mg/L ampicillin sodium or 100 mg/L kanamycin sulfate. One platinum loop of the cells was transferred from pregrown agar medium to a test tube containing 5 ml of culture medium, and shake-culture was conducted overnight at 120 rpm.
(§2) The precultured cells were transferred at 1% into 200 ml of the same medium in a baffle-equipped flask. Shake-culture was conducted at 37° C., a prescribed amount of IPTG was added at the point when the O.D. of the culture broth reached 0.3, and the culture was conducted at 28° C. for 12 hours to induce production of the target gene.
(§3) The main cultured cells were collected and rinsed once with 50 mM KPi Buffer (pH 7), and then suspended in 5 ml of a reaction mixture containing 20 mM substrate (4-aminophenylalanine, phenylalanine), for resting cell reaction. The reaction was conducted for 0 to 24 hours while shaking at 37° C. After the reaction, the supernatant was transferred to a centrifuge tube and recovered by centrifugal separation, and high-performance liquid chromatography (HPLC) was used in the following manner for quantitation of the reaction product.
HPLC (1200 infinity series: Hewlett Packard) was used for quantitation. A Purospher STAR RP-18 endcapped column was used, with a mixture of 20 mM potassium phosphate (pH 7.0) and 100% methanol as the eluent. […]

[2] = Km and kcat of recombinant purified enzyme for 4-aminophenylalanine; type: biochemical; details: purified His-tag enzyme
Method: (§4) [Measurement of Enzyme Activity of Escherichia coli Recombinant Purified Enzyme]
(§5) Escherichia coli was inoculated into 5 ml of LB medium containing 100 mg/L ampicillin sodium or 100 mg/L kanamycin sulfate, and cultured overnight at 37° C. It was then used to inoculate 200 ml of the same culture medium and cultured to an O.D of 0.6, IPTG was added to a final concentration of 0.5 mM, and the incubation was continued for 12 hours at 28° C. The rotational speed during cultures was 120 rpm. The cultured cells were collected and suspended in 20 mM potassium phosphate buffer (pH 7.5) and subjected to ultrasonic disruption, and after centrifugal separation, the supernatant was purified using a His-Trap column and the enzyme activity was measured. The method of measuring the enzyme activity was according to the method for the crude extract described above.
(§6) Since pET28AtPAL4 and its mutants and RgPAL were produced as fusion proteins with His-tag in the Escherichia coli of Example 3, these enzymes could be easily purified using an affinity column. After culturing the producing cells, the cells were collected, disrupted and purified. The purified enzymes were used to calculate the Km values and kcat values.

[3] = 4APAL activity of Escherichia coli recombinant enzyme crude extract; type: biochemical; details: crude cell extract, BL21(DE3), 20 mM substrate
Method: (§7) [Measurement of Enzyme Activity of Escherichia coli Recombinant Enzyme Crude Extract]
(§8) Escherichia coli was inoculated into 5 ml of LB medium containing 100 mg/L ampicillin sodium or 100 mg/L kanamycin sulfate, and cultured overnight at 37° C. It was then inoculated into 200 ml of the same culture medium and cultured to an O.D. of 0.6, isopropyl-β-thiogalactopyranoside (IPTG) was added to a final concentration of 0.5 mM, and culturing was conducted for 12 hours at 28° C.
(§9) The cultured cells were collected and suspended in 20 mM potassium phosphate buffer (pH 7.5) and subjected to ultrasonic disruption and the supernatant was used as a crude extract for activity measurement. The enzyme activity was measured and quantified by measuring the absorbance at the absorption wavelength of the reaction product using a spectrophotometer, for a period of 5 minutes. For PAL activity, the crude extract was added to 100 mM Tris Buffer (pH 8.0) and 20 mM phenylalanine, reaction was conducted, and production of cinnamic acid was measured by the change in absorbance at a wavelength of 290 nm, while for 4APAL activity, 20 mM 4-aminophenylalanine was used as substrate and the absorbance at a wavelength of 315 nm due to 4-aminocinnamic acid was measured and quantified.

[4] = PAL activity of Escherichia coli recombinant enzyme crude extract; type: biochemical; details: crude cell extract, BL21(DE3), 20 mM substrate
Method: as §7, §8, §9

[5] = Resting cell reaction, production of 4-aminocinnamic acid; type: cell-based, Escherichia coli
Method: as §1, §2, §3
HPLC (1200 infinity series: Hewlett Packard) was used for quantitation. A Purospher STAR RP-18 endcapped column was used, with a mixture of 20 mM potassium phosphate (pH 7.0) and 100% methanol as the eluent. Measurement was carried out using absorption at wavelengths of 210 nm, 254 nm and 280 nm.
The Escherichia coli BL21-pET28a-RgPAL cells were prepared by the following method. Escherichia coli BL21-pET28a-RgPAL was shake cultured overnight at 37° C., 120 rpm using medium containing 100 mg/L kanamycin sulfate in 5 ml of LB medium (1% tryptone, 0.5% yeast extract, 0.5% sodium chloride). A 2 mL portion of the obtained cell culture solution was transferred into 200 ml of the same medium in a 500 mL-volume Erlenmeyer flask, and then shake cultured at 37° C., 120 rpm. IPTG was added when the optical density of the culture reached 0.3, and shake culture was conducted at 28° C., 120 rpm for 12 hours. The obtained Escherichia coli BL21-pET28a-RgPAL cells were collected by centrifugal separation and rinsed once with 50 mM potassium phosphate (pH 7), after which they were suspended in the same buffer containing 20 mM of substrate (4-aminophenylalanine or phenylalanine), and incubated for 24 hours while shaking at 37° C. After the reaction, the produced 4-aminocinnamic acid or cinnamic acid was quantified using HPLC. Reaction was also carried out in aqueous 50 mM potassium phosphate at pH 8 or 9, using the same method as above. […] In particular, the conversion efficiency increased by 12-fold at pH 7.

[6] = Km and kcat of recombinant purified enzyme for phenylalanine; type: biochemical; details: purified His-tag enzyme
Method: as §4, §5, §6

B1: RgPAL: PAL derived from the yeast Rhodotorula glutinis, amino acid sequence SEQ ID NO: 2 (protein)
chain: MAPSVDSIATSVANSLSNGLAGDLRKKTSGAGSLLPTTETTQIDIVERILADAGATDQIKLDGYTLTLGDVVGAARRGRTVKVADSPQIREKIDASVEFLRTQLDNSVYGVTTGFGGSADTRTEDAISLQKALLEHQLCGVLPTSMDGFALGRGLENSLPLEVVRGAMTIRVNSLTRGHSAVRIVVLEALTNFLNHGITPIVPLRGTISASGDLSPLSYIAASITGHPDSKVHVDGQIMSAQEAIALKGLQPVVLGPKEGLGLVNGTAVSASMATLALTDAHVLSLLAQANTALTVEAMVGHAGSFHPFLHDVTRPHPTQIEVARNIRTLLEGSKYAVHHETEVKVKDDEGILRQDRYPLRCSPQWLGPLVSDMIHAHSVLSLEAGQSTTDNPLIDLENKMTHHGGAFMASSVGNTMEKTRLAVALMGKVSFTQLTEMLNAGMNRALPSCLAAEDPSLSYHCKGLDIAAAAYTSELGHLANPVSTHVQPAEMGNQAINSLALISARRTAEANDVLSLLLATHLYCVLQAVDLRAMEFEHTKEFEPMVTDLLKQHFGALATADVEDKVRKSIYKRLQQNNSYDLEQRWHDTFSVATGAVVEALAGNEVSLASLNAWKVACAEKAIALTRTVRDSFWAAPSSASPALKYLSPRTRILYSFVREDVGVKARRGDVYLGKQEVTIGTNVSRIYEAIKDGRIAPVLVKMMA
modifications: RgPAL cDNA
In the case of B1, the “cinnamic acid produced compared to AtPAL4” value [1] is reported as 36%, the “Kcat value, 4-Aminophenylalanine” value [2] is reported as 0.44 s⁻¹ and the Km [2] is reported as 22 mM. The “4APAL activity compared to AtPAL4” value [3] was 8 fold, the “4APAL activity compared to AtPAL4” value ([3]; listed as enzyme of the invention) was “approximately 8 fold” and the “PAL activity compared to AtPAL4” value [4] was 8.5 fold. The “4-aminocinnamic acid production reached” value [5] was “about 1 g/L”, the “4-aminocinnamic acid amount compared to AtPAL4” value ([5]; 4-aminophenylalanine alone as substrate) was 12 times and the “conversion efficiency increase compared to AtPAL4” value ([5]; pH 7) was 12 fold. The “4-aminocinnamic acid produced, maximum” value ([5]; resting cells reaction) was 825 mg/L, the “Kcat value, Phenylalanine” value [6] was 3.4 s⁻¹ and the Km [6] was 0.098 mM.
